From US20200262914A1 (MIT, published 2020)

Legend:
[1] = molecular target: T1, human Bcl-xL (residues 1-209) (human, UniProt Q07817 1-209); assay: solution binding assays (competition FP)
T1 construct: range 1-209

[2] = molecular target: T1, human Bcl-xL (residues 1-209); assay: competition FP vs fluoresceinated Bim BH3, solution
From the text: (§1) We used the cell-surface experiments to select six peptides, for which we determined solution Ki values using a competition fluorescence polarization (FP) assay (FIG. 3, panel d).

[3] = molecular target: T2, human Mcl-1 (residues 172-327) (human, UniProt Q07820 172-327); assay: as above
T2 construct: range 172-327
From the text: as §1

[4] = molecular target: T3, human Bfl-1 (residues 1-151) (human, UniProt Q16548 1-151); assay: competition FP, solution
T3 construct: range 1-151
T3 sequence (looked up): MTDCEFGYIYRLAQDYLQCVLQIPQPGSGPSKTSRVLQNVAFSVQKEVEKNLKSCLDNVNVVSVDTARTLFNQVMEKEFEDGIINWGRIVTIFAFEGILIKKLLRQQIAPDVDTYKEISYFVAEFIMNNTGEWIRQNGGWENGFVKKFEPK
From the text: as §1

[5] = molecular target: T2, human Mcl-1 (residues 172-327); assay: competition FP, solution
From the text: as §1

[6] = molecular target: T3, human Bfl-1 (residues 1-151); assay: competition FP vs fluoresceinated Bim BH3, solution
From the text: as §1

[7] = molecular target: T3, human Bfl-1 (residues 1-151); assay: yeast display, sparse titration, apparent KD;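 note: designs displayed on the yeast cell surface, binding of soluble target protein measured at four concentrations spanning nanomolar to micromolar, apparent KD estimated from this sparse titration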
Method: We measured binding of the designs to 1, 10, 100 or 1000 nM of Bcl-xL, Mcl-1 and Bfl-1 using yeast cell-surface display.

[8] = molecular target: T3, human Bfl-1 (residues 1-151); assay: reported affinity; yeast cell-surface measurement presumed

T2 sequence (Q07820 172-327 limits assumed): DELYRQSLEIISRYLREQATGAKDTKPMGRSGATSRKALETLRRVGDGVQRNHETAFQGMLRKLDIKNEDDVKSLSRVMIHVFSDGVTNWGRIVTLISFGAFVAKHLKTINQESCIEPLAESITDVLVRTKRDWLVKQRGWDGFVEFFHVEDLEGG
T1 sequence (Q07817 1-209 limits assumed): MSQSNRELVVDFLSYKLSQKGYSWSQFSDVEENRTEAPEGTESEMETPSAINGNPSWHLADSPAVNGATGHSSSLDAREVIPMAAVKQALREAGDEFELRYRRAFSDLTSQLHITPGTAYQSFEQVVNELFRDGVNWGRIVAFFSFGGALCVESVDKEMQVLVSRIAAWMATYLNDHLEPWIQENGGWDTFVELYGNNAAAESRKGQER

B1: srt.X7 (peptide)
peptide: Ac-QPLIWFGAQLRRGADEFAAQRER-NH2
notes: synthetic solution peptide; also called srt.X07
- fold specificity for target over off-targets [1]: > 1000 fold
- Ki [2]: 3.7 nM

B2: srt.MX01 (peptide)
peptide: Ac-QWLRWVIAELIRIADEFHAQYER-NH2
notes: synthetic solution peptide
- Ki [3]: 11 nM
- Ki [2]: 21 nM

B3: srt.MF06 (peptide)
peptide: Ac-RRVDEIAQILRRIGDNVTTYIER-NH2
notes: synthetic solution peptide; also called MF6
- fold tighter Ki than to Bcl-xL [4]: > 100 fold
- fold tighter Ki than to Bcl-xL [5]: > 100 fold
- Ki [6]: 19 nM
- Ki [3]: 5.7 nM

B4: srt.X1 (peptide)
peptide: Ac-QTLIWYGASLRRYADEFAKQRER-NH2
notes: synthetic solution peptide; also called srt.X01
- fold specificity for target over off-targets [1]: > 1000 fold
- Ki [2]: 1.32 nM

B5: srt.MF02 (peptide)
peptide: Ac-RWIDQIAQFLRRIGDHIEKYIER-NH2
notes: synthetic solution peptide; also called MF2
- fold tighter Ki than to Bcl-xL [4]: > 100 fold
- fold tighter Ki than to Bcl-xL [5]: > 100 fold
- Ki [6]: 6.6 nM
- Ki [3]: 9 nM
- Ki [2]: 1000 nM

B6: F4 (peptide)
peptide: GQRVVHIAAGLRRTGDQLEAYG
- Kd [7]: < 100 nM
- Kd [8]: 14 nM

B7: F10 (peptide)
peptide: GRRVVQIAAGLRRAGDQLEKYG
- Kd [7]: < 100 nM
- Kd [8]: 3.2 nM

B8: srt.MX05 (peptide)
peptide: Ac-QWLRDVVAELARIADEFHAQYER-NH2
notes: synthetic solution peptide
- Ki [3]: 100 nM
- Ki [2]: 20 nM
